Measurements reported in article doi:10.1101/870071 (bioRxiv, 2019).

B1: His-Bem1p (natural protein, yeast, UniProt P29366 1-551, looked up)
chain: MLKNFKLSKRDSNGSKGRITSADISTPSHDNGSVIKHIKTVPVRYLSSSSTPVKSQRDSSPKNRHNSKDITSPEKVIKAKYSYQAQTSKELSFMEGEFFYVSGDEKDWYKASNPSTGKEGVVPKTYFEVFDRTKPSSVNGSNSSSRKVTNDSLNMGSLYAIVLYDFKAEKADELTTYVGENLFICAHHNCEWFIAKPIGRLGGPGLVPVGFVSIIDIATGYATGNDVIEDIKSVNLPTVQEWKSNIARYKASNISLGSVEQQQQQSITKPQNKSAKLVDGELLVKASVESFGLEDEKYWFLVCCELSNGKTRQLKRYYQDFYDLQVQLLDAFPAEAGKLRDAGGQWSKRIMPYIPGPVPYVTNSITKKRKEDLNIYVADLVNLPDYISRSEMVHSLFVVLNNGFDREFERDENQNNIKTLQENDTATFATASQTSNFASTNQDNTLTGEDLKLNKKLSDLSLSGSKQAPAQSTSGLKTTKIKFYYKDDIFALMLKGDTTYKELRSKIAPRIDTDNFKLQTKLFDGSGEEIKTDSQVSNIIQAKLKISVHDI
B2: His-GIV-CT (C-terminus of GIV/Girdin), wild type (domain or fragment)
chain: SETLESRHHKIKTGSPGSEVVTLQQFLEESNKLTSVQIKSSSQENLLDEVMKSLSVSSDFLGKDKPVSCGLARSVSGKTPGDFYDRRTTKPEFLRPGPRKTEDTYFISSAGKPTPGTQGKIKLVKESSLSRQSKDSNPYATLPRASSVISTAEGTTRRTSIHDFLTKDSRLPISVDSPPAAADSNTTAASNVDKVQESRNSKSRSREQQSS

Experiments:
[1] = target: GST-Exo70p (yeast Exo70) (yeast, UniProt P19658 1-623); test: pull-down
[2] = target: GST-hExo70 (human Exo70) (human, UniProt Q9UPT5 1-735); test: pull-down
Chain of GST-hExo70 (human Exo70) (Q9UPT5 whole entry): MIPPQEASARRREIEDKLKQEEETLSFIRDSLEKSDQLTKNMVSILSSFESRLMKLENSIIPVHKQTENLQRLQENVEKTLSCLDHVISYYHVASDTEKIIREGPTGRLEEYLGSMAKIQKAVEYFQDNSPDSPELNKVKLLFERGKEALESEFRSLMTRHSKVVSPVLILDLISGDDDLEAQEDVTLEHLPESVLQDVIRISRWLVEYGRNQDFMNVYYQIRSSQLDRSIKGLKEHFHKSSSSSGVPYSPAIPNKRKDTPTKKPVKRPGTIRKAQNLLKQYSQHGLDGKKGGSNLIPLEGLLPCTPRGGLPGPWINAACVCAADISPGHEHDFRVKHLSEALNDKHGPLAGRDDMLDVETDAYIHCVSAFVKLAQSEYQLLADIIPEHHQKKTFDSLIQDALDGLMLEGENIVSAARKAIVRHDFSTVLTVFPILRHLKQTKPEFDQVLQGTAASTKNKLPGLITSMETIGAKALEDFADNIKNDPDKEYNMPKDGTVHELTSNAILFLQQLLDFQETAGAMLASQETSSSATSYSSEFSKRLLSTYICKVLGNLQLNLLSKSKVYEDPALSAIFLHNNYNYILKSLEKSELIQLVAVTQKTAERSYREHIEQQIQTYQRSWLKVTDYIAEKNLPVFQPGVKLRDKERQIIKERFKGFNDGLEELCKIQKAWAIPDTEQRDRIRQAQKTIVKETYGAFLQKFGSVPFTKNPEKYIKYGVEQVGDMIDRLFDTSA

Chain of GST-Exo70p (yeast Exo70) (P19658 whole entry): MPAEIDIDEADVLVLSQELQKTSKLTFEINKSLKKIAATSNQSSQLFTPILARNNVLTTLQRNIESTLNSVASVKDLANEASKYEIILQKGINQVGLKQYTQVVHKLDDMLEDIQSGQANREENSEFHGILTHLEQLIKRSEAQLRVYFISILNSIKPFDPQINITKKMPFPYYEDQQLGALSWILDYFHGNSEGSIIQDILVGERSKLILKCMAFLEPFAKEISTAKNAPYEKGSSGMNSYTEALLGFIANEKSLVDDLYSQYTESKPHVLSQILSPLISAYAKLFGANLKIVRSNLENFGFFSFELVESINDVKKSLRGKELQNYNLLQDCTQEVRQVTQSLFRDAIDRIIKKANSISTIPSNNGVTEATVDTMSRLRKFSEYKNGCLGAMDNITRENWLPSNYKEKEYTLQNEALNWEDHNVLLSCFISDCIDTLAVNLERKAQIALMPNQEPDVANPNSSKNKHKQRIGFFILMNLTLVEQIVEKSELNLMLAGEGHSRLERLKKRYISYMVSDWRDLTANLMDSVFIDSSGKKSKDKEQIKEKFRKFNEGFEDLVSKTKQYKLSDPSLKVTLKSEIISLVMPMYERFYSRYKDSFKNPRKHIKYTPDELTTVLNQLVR

Binder	fold binding against human Exo70 [1]	fold binding against yeast Exo70p [2]
B1	2 fold	
B2		4 fold
